Assay in all cases: cell-based or functional assay
In test [1] the target is HIV-1 Env of pseudovirus MGRM-G-028 (HIV-1, clade G isolate MGRM-G-028).
The target in test [2] is HIV-1 Env of pseudovirus MGRM-F1-022 (HIV-1).
Test [3] concerns the target HIV-1 Env of pseudovirus MGRM-AE-005 (clade CRF01_AE) (HIV-1).
Test [4] concerns the target HIV-1 Env of pseudovirus MGRM-F1-021 (HIV-1).
For test [5], the target named is HIV-1 Env of isolate 98IN022 (clade C) (HIV-1 isolate 98IN022).
For test [6], the target named is aMLV envelope protein on pseudovirus.
Test [7] concerns the target HIV-1 94UG103 envelope glycoprotein (Env) on pseudovirus (HIV-1).
The target of test [8] is HIV-1 Env of pseudovirus MGRM-G-006 (clade G) (HIV-1).
In test [9] the target is HIV-1 envelope glycoprotein (Env) of isolate 92UG037, clade A (HIV-1).
The target in test [10] is HIV-1 Env of pseudovirus MGRM-G-013 (HIV-1, clade G isolate MGRM-G-013).
Test [11] has as its target HIV-1 Env of pseudovirus MGRM-G-027 (HIV-1, clade G isolate MGRM-G-027).
For test [12], the target named is HIV-1 92BR020 Env (pseudovirus) (HIV-1).
Test [13] has as its target HIV-1 Env of isolate MG RM-D-018 (HIV-1).
Test [14] addresses HIV-1 Env of isolate MGRM-Chronic-B-024 (subtype B) (HIV-1).
The target in test [15] is HIV-1 MGRM-C-028 Env (pseudovirus, clade C) (HIV-1).
Test [16] concerns the target HIV-1 Env of isolate MGRM-Chronic-B-012 (subtype B) (HIV-1).
The target in test [17] is HIV-1 Env of isolate MG RM-D-013 (HIV-1).
Test [18] concerns the target HIV-1 Env of isolate 98CN009 (HIV-1).
The target in test [19] is HIV-1 Env of isolate 92WR026 (HIV-1).
In test [20] the target is HIV-1 Env of isolate TRO.11 (subtype B) (HIV-1).
Test [21] addresses HIV-1 Env of isolate MG RM-D-003 (HIV-1).
Test [22] deals with HIV-1 Env of isolate 92TH021 (clade AE), on pseudovirus (HIV-1).
Test [23] addresses HIV-1 Env of isolate MGRM-C-026 (pseudovirus) (HIV-1).
For test [24], the target named is HIV-1 Env of isolate 92UG005 (clade D), on pseudovirus (HIV-1).
The target of test [25] is HIV-1 Env of isolate MGRM-A-008 (subtype A) (HIV-1).
The target of test [26] is HIV-1 Env of isolate NL43 (subtype B) (HIV-1).
Test [27] concerns the target HIV-1 Env of isolate MGRM-AG-001 (subtype AG) (HIV-1).
In test [28] the target is HIV-1 Env of isolate 93MW959 (subtype C) (HIV-1).
For test [29], the target named is HIV-1 envelope glycoprotein (Env) of isolate MGRM-C-014 (HIV-1).
Test [30] has as its target HIV-1 MGRM-C-027 Env (pseudovirus, clade C) (HIV-1).
Test [31] deals with HIV-1 Env of isolate MG RM-D-022 (HIV-1).
Test [32] addresses HIV-1 envelope glycoprotein (Env) of isolate MGRM-C-012 (HIV-1).
The target in test [33] is HIV-1 Env of isolate MG RM-D-012 (HIV-1).

Sequence of 5329_C19 (PGT-136) (antibody) (VH): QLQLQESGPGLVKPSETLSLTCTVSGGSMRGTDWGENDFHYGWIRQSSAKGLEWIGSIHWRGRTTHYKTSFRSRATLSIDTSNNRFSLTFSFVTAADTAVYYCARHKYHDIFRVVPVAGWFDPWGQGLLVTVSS
Sequence of 5329_C19 (PGT-136) (antibody) (VL): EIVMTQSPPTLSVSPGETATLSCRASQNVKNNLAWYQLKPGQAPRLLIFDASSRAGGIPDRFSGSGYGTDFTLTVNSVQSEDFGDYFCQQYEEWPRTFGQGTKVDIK
Sequence of 1443_C16 (PG16) (TCN-116) (antibody) (VH): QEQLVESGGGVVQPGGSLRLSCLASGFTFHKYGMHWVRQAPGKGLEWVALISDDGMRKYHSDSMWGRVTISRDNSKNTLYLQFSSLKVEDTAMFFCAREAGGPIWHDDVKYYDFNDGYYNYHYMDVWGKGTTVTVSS
Sequence of 1443_C16 (PG16) (TCN-116) (antibody) (VL): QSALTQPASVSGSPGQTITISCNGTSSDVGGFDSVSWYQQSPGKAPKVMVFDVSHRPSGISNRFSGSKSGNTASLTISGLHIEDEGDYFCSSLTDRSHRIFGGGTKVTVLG

Consider 1443_C16 (PG16) (TCN-116) (antibody), for which the IC50 (µg/ml), pseudovirus neutralization in [1] is 3.09 µg/mL; in test [2], 0.08 µg/mL; in [4], over 50 µg/mL; in test [5], 0.003 µg/mL; in test [9], 0.01 µg/mL; in test [10], over 50 µg/mL. Moreover, the IC50 (µg/ml), pseudovirus neutralization in test [11] is 0.01 µg/mL. Besides, the values for the IC50 in test [3] and in [8] were 0.02 µg/mL and 2.42 µg/mL, respectively. In addition, the IC50, pseudovirus neutralization is over 50 µg/mL in test [6] and 0.008 µg/mL in [7].
For 2G12 (antibody), the IC50 (µg/ml), pseudovirus neutralization was 28.2 µg/mL in test [1]; over 50 µg/mL in test [2]; 14.1 µg/mL in [4]; over 50 µg/mL in test [5]; 45.2 µg/mL in test [9]; over 50 µg/mL in [10]. The IC50 (µg/ml), pseudovirus neutralization in test [11] is over 50 µg/mL. The IC50 in [3] and in test [8] was over 50 µg/mL in each case. Moreover, the IC50, pseudovirus neutralization in [6] and in [7] was over 50 µg/mL throughout.
Consider 4E10 (antibody), for which the IC50 (µg/ml), pseudovirus neutralization in [1] worked out at 6.32 µg/mL; in [2] it was 1.01 µg/mL; in [4], 1.87 µg/mL; in test [5], 0.53 µg/mL; in [9], 8.84 µg/mL; in test [10], 1.15 µg/mL. Also, the IC50 (µg/ml), pseudovirus neutralization in test [11] worked out at 1.19 µg/mL. Also, the values for the IC50 in [3] and in test [8] were 0.47 µg/mL and 1.23 µg/mL, respectively. The IC50, pseudovirus neutralization in test [6] was over 50 µg/mL; in test [7], 9.7 µg/mL.
b12 (antibody): the IC50 (µg/ml), pseudovirus neutralization in [1] was over 50 µg/mL; in [2], over 50 µg/mL; in [4] it was over 50 µg/mL; in [5], 0.42 µg/mL; in [9], over 50 µg/mL; in test [10] it was over 50 µg/mL. Besides, the IC50 (µg/ml), pseudovirus neutralization in test [11] is over 50 µg/mL. Further, the IC50 in [3] was 0.63 µg/mL; in test [8] it was over 50 µg/mL. Also, the IC50, pseudovirus neutralization in test [6] is over 50 µg/mL; in [7], 3.54 µg/mL.
In the case of 2F5 (antibody), the IC50 (µg/ml), pseudovirus neutralization in [1] is 2.24 µg/mL; in [2] it was 1.26 µg/mL; in test [4], 1.37 µg/mL; in test [5], over 50 µg/mL; in test [9], 3.24 µg/mL; in test [10], 0.59 µg/mL. In [11], this substance returned an IC50 (µg/ml), pseudovirus neutralization of 0.28 µg/mL. Also, the IC50 came out at 0.14 µg/mL in test [3] and 1.33 µg/mL in [8]. The IC50, pseudovirus neutralization was over 50 µg/mL in test [6] and 3.79 µg/mL in [7].
1495_C14 (PGC14) (antibody): the IC50 (µg/ml), pseudovirus neutralization in [1] is over 50 µg/mL; in test [2] it was over 50 µg/mL; in test [4] it was 46 µg/mL; in test [5] it was 9 µg/mL; in [9], over 50 µg/mL; in test [10], over 50 µg/mL. This substance had an IC50 (µg/ml), pseudovirus neutralization in test [11] of over 50 µg/mL. Also, the IC50 in [3] and in test [8] was over 50 µg/mL in each case. For the same substance, the IC50, pseudovirus neutralization in test [6] and in test [7] was over 50 µg/mL in each case.
In [12], 5329_C19 (PGT-136) (antibody) had a neutralization IC50 (pseudovirus) of over 10 µg/mL. For the same substance, the IC50 (µg/mL), pseudovirus neutralization is over 50 µg/mL in test [13]; over 50 µg/mL in [17]; 0.428 µg/mL in [18]; over 50 µg/mL in [21]; over 50 µg/mL in [25]; over 50 µg/mL in test [27]. Also, the IC50 (µg/mL), pseudovirus neutralization in test [29], in [31], in test [32] and in test [33] was over 50 µg/mL in each case. Moreover, the IC50 neutralization is over 50 µg/mL in test [14]; over 10 µg/mL in [15]; 43.1 µg/mL in test [16]; 0.073 µg/mL in [20]; 27.7 µg/mL in test [26]; over 50 µg/mL in test [28]. This substance registered an IC50 neutralization in [30] of over 10 µg/mL. In [19], the IC50 was over 50 µg/mL. Besides, the IC50, pseudovirus neutralization in [22] and in test [24] was over 10 µg/mL throughout. The Primary Neutralization Index (B cell culture supernatant) in test [23] was 6.

For orientation: IC50 means the concentration at which inhibition is half-maximal. Higher therefore signals a need for much substance.
